Data on 167 variants can be found in the RNAGym collection of RNA variant scans (doi:10.7554/elife.90254).

B1: LINE1-full (parent)
chain: UACGUAGGUGGUUUUCCCCUGAUAGUGCUAAGGGGGCCUGGAAGUUUGGACUGGGCAGAGCUCAACACAGCGUGGCAAAGUGGCUGUGGCUAGACUGCCUCUCUGGAUUCCUCGUCACUCAGCAGGGCAUCUCUGAGAGAAAUGCC

This data set covers variants of B1. As to the kind of experiment: self-cleavage, relative activity (ratio to wild type); higher = more cleavage; in vitro, sequencing; the parent is a self-cleaving ribozyme.
Turning to U100G G137A, the self-cleavage is 0.77.
With A107U A138U the figure was 2.59; with U104A U130C, 1.51; with U100C U102A, 1.95.
With A107G G127C the figure was 1.72.
The result for A107G G127A reads 1.81.
Consider U100C G144A, for which the self-cleavage was found to be 1.07.
Consider U100C G144C, for which the self-cleavage was determined as 1.95.
The result for C103U A124G reads 1.56; that for U100C U119A, 2.09.
The result for G106A U119A reads 0.75; that for G106A U119C, 1.58; that for U102C C113A, 1.63.
The result for U102C C113G reads 1.08.
Take U102C C113U: the self-cleavage is 1.48.
With U102C A138G the figure was 1.42.
With U102A A117U the figure was 1.37; with U102A A117G, 1.31; with U100C A138G, 1.83.
The result for U109A U119C reads 1.95; that for A107U U143A, 1.48; that for U108C A140U, 1.66.
Take U109A U115A: the self-cleavage worked out at 1.47.
In the case of U109A U115C, the self-cleavage was 1.43.
Regarding U102C A140G, the self-cleavage was 1.45.
The result for U102C A140U reads 1.48.
With U109A A136G the figure was 1.4.
With U109A A136U the figure was 2.61; with U102A U115C, 1.88.
With U102A U115G, the self-cleavage stood at 2.51.
Regarding U102C U143C, the self-cleavage was 1.09.
Regarding U102C U143G, the self-cleavage was found to be 1.59.
With U100G A107G the figure was 1.31.
The result for U104A G114U reads 1.09.
For the variant U104G C123U, the self-cleavage was determined as 1.25.
With U100C C110A the figure was 1.77.
The result for G106A U108C reads 1.61.
With U109A C111U the figure was 1.56; with U104C A107G, 1.86; with U100C A129G, 1.99.
Consider U104C U143C, for which the self-cleavage came out at 2.1.
With U104C U143A the figure was 1.56.
With A107U U132A the figure was 1.88; with U104C U130C, 1.71; with A107C G114A, 1.74.
With G106C U108C the figure was 2.2.
Take U108C U143A: the self-cleavage turned out to be 0.26.
For the variant U109A G125A, the self-cleavage amounted to 1.34.
With U109A A138G the figure was 0.7; with U100A U134C, 1.12; with A107G, 1.46.
With A107U the figure was 1.46; with A107C, 1.56; with U104G U130A, 0.
The result for U104G A140C reads 0.28; that for U108C A136U, 1.93; that for U104G U134C, 1.39.
For U108A A140G, the self-cleavage was determined as 1.58.
With U104C U109G the figure was 1.53; with U104C U109C, 1.39.
With U109A U132C the figure was 1.37.
The result for U102A U108C reads 1.14; that for G105A U115C, 1.54; that for U102G A129G, 0.88.
Regarding C101U G139U, the self-cleavage was found to be 1.64.
As to U108C G114A, the self-cleavage worked out at 1.71.
The result for A107G U115A reads 0.95.
The result for A107G U115C reads 1.99; that for U102C C131A, 1.48; that for U104A A107G, 0.9.
The result for A107G G126A reads 1.71; that for U104A C116A, 1.11.
For the variant C101A A138G, the self-cleavage is 1.36.
U100C U108A: the self-cleavage is 1.42.
The result for U100C A121G reads 1.21.
In the case of U100C A121U, the self-cleavage worked out at 2.11.
With U104G the figure was 1.19.
For U104A, the self-cleavage stood at 1.14.
The result for U104C reads 1.65; that for U102A G125A, 1.51.
Turning to U100C C111U, the self-cleavage came out at 1.48.
With U100C C146U the figure was 1.71.
The result for G106U A117U reads 1.26; that for A107G U143C, 1.38; that for U108C U134C, 1.57.
For U108C U134A, the self-cleavage is 2.21.
The result for U108A U132C reads 1.65.
With U108A U132A the figure was 1.24.
The result for U102A C103U reads 1.41.
As for A107G U130A, the self-cleavage is 1.74.
A107G U130G: the self-cleavage was determined as 1.15.
The result for U102C A117U reads 1.07; that for U102C A117G, 1.6; that for U104A A142G, 1.43.
The result for U102C U109A reads 1.31; that for U108C G137A, 0.89; that for U104A A124U, 1.25.
The result for U102C U130C reads 1.24; that for U102A U143C, 1.25; that for U102A U143A, 1.08.
U104C U134G: the self-cleavage came out at 0.75.
With U104C G125U the figure was 1.68.
With U104C A117U the figure was 1.73; with U102C A129U, 1.22; with U108A G122U, 0.97.
In the case of A107G A141C, the self-cleavage worked out at 1.51.
With A107G A141G, the self-cleavage is 1.64.
The result for U108C G125A reads 1.22; that for U102A U132C, 1.69.
Regarding C103U U109C, the self-cleavage is 0.53.
Consider U102A A124G, for which the self-cleavage turned out to be 1.08.
With U108C A124U, the self-cleavage was 1.81.
The result for U108C A124G reads 1.47.
As for C101U A107G, the self-cleavage is 1.73.
With C103U A136G the figure was 1.39.
For U104C U112C, the self-cleavage came out at 1.66.
The result for A107G C131U reads 1.83; that for U100C U143A, 1.15; that for U100C U143G, 2.85.
With U109A A129U the figure was 2.02; with U104A A140G, 0.47.
The result for U104A U119C reads 1.47.
As for U104A U119G, the self-cleavage was 0.64.
On to G106A A124G, for which the self-cleavage is 1.81.
Consider U102C C110U, for which the self-cleavage turned out to be 1.78.
Take U109A U134A: the self-cleavage is 0.68.
The result for U100C A117G reads 1.49; that for U100C A117C, 1.31.
The result for U100C A117U reads 1.63; that for U102C U132A, 1.34; that for G105A A141U, 0.
With G105A A141G the figure was 0.87; with U108G A140G, 0.29; with U100C C118A, 2.
In the case of C103U G114A, the self-cleavage is 1.19.
The result for U104A U112C reads 1.32; that for U104A U112A, 1.4.
The result for U100C C113U reads 1.7; that for G105U A124U, 0.22; that for A107G A140U, 0.94.
As to U102G A121G, the self-cleavage amounted to 0.59.
With U104C A121G the figure was 1.56; with U104C A121U, 1.59.
For U108C U130A, the self-cleavage was determined as 2.75.
With U102A U134A the figure was 1.06; with U108C U112A, 1.94; with U108C U112C, 1.74.
The result for U108G U119C reads 2.59; that for U108C U132C, 1.83.
With U108C U132A the figure was 2.04; with U100C U134A, 1.83.
In the case of U100C U134C, the self-cleavage is 2.01.
As to U108A A138C, the self-cleavage is 1.32.
With C101U U108C the figure was 1.37; with U102C U119C, 1.69; with U102C U119A, 1.45.
With U104A A117U the figure was 1.31; with U104C G135A, 1.52.
The result for C101U A124G reads 2.06; that for U108A U130C, 1.51.
U104C C145G: the self-cleavage was determined as 2.3.
With U108A U119A the figure was 0.96; with U108A U119C, 1.41.
U100G U104A: the self-cleavage stood at 1.17.
Take A107C U109C: the self-cleavage turned out to be 2.7.
The result for G106A U134G reads 1.86.
With U108C C128U the figure was 1.78.
